These results are taken from the DeepSol protein solubility set.

The data set can be described thus: soluble on expression in E. coli; label from the status in PepcDB or PDB records.
On to “METYDLVIIGGGINGAGIARDAAGRGLSVLLCEKDDLASHTSSASTKLIHGGLRYLEYYEFGLVRKALQEREVLLKAAPHIIWPLRFVMPHARDQRPEWMIRAGLFLYDHLAKREVLPGSETVSFARHPSGAPLKDAFKRGFVYSDGWVQDARLVVLNAMDAAEHGAKIHVRTACVAARRDGEHWLATLEREDGSRFEVRARALVNAAGPWVQSLIEDKLAMPSSKSIRLVKGSHIVVKKIFDHPFAYIFQNPDKRIIFAIPYEKDFTLIGTTDVEYHGDPAQVAIDGDEINYLCEMSNRYFHSQITPADVLSTYSGVRPLLDDASDNASSVTRDYALEMDLKGAPLLSVFGGKITTFRKLAEEAVDKIAPLLGCGQATWTAGAPLPGGDMPGADFGRFLQGLRQRHPWLPEALAERWARAYGTRVGKLIGKADSLAGLGKEVLPGLYEAELAYLADAEWATRSEDILWRRSKLKLHLPANAAEVVDAWLAARAQPPREALSALEHHHHHH”, for which the “soluble on expression in E. coli” value is listed as “not soluble”. The same measure for “SLQSIIGKHKDEGKITPEYLKKIDAYWRAANFISVGQLYLLDNPLLREPLKPEHLKRKVVGHWGTIPGQNFIYAHLNRVIKKYDLDMIYVSGPGHGGQVMVSNSYLDGTYSEVYPNVSRDLNGLKKLCKQFSFPGGISSHMAPETPGSINEGGELGYSLAHSFGAVFDNPDLITACVVGDGEAETGPLATSWQANKFLNPVTDGAVLPILHLNGYKISNPTVLSRIPKDELEKFFEGNGWKPYFVEGEDPETMHKLMAETLDIVTEEILNIQKNARENNDCSRPKWPMIVLRTPKGWTGPKFVDGVPNEGSFRAHQVPLAVDRYHTENLDQLEEWLKSYKPEELFDENYRLIPELEELTPKGNKRMAANLHANGGLLLRELRTPDFRDYAVDVPTPGSTVKQDMIELGKYVRDVVKLNEDTRNFRIFGPDETMSNRLWAVFEGTKRQWLSEIKEPNDEFLSNDGRIVDSMLSEHLCEGWLEGYLLTGRHGFFASYEAFLRIVDSMITQHGKWLKVTSQLPWRKDIASLNLIATSNVWQQDHNGYTHQDPGLLGHIVDKKPEIVRAYLPADANTLLAVFDKCLHTKHKINLLVTSKHPRQQWLTMDQAVKHVEQGISIWDWASNDKGQEPDVVIASCGDTPTLEALAAVTILHEHLPELKVRFVNVVDMMKLLPENEHPHGLSDKDYNALFTTDKPVIFAFHGFAHLINQLTYHRENRNLHVHGYMEEGTITTPFDMRVQNKLDRFNLVKDVVENLPQLGNRGAHLVQLMNDKLVEHNQYIREVGEDLPEITNWQWHV”: “soluble”. For the sequence “MPRVWKFGDQINTDDILPGKYAPFMVGEDRFHLYAFAHLRPEFAKEVRPGDILVFGRNAGLGSSREYAPEALKRLGIRAIIAKSYARIFFRNLVNLGIVPFESEEVVDALKDGDEVELDLESGVLTRGEERFLLRPPPPFLLEALKEGSLLDYYKKHGRFPGE”, the “soluble on expression in E. coli” value was “soluble”. The result for “MGSDKIHHHHHHMVARRRLDAELVRRKIARSREHAVEMIRGRRVFVAGMLALKPATVVEPEVSIRVEEDASEDWASRGAHKLLGALESFEPLGLKVKGRRVLDAGASTGGFTDVLLRREASEVVAVDVGYGQLIWRLQNDDRVRVVDRTNIRYMTLEDTGGECDMMVGDLSFISLKLTLPAIAKVLSDGADLLPMVKPQFEVGKDRLGSGGVVRSPELRAEVTADVAKFAATLGLSLKHVVASPLPGPSGNVEYFLWLVKDGGASMPDDQQLSAMIDTAVKEGPQ” reads “not soluble”. The result for “MAGPSLVEVAAAVLIRPDDSFLLACRPDGKPYAGYWEFPGGKIETGESPLQALARELDEELGITVRQATPWLTRTFSYPHATVRLRFYRVTDWHGELTPRERQQFAWQTAENITVSPLLPANTPILRSLALPSIYAVTRTVETDIEASLLSIGQTLGNGVKLLQIRQKAMSHDQLEHFSRTALQLARSYQATVLINENIPLAQTLQADGVHLTAAQLRSLHSRPAVNWCGASCHNEQELQRAERLGVDFVTLSPVQPTLSHPGAAALGWKEFAALIRDYPLPVYALGGLLPADLETAREYGAHGIAMMRSILEHHHHHH” reads “not soluble”; that for “MDKNRVFGQRLRQSIQNYFSSPWLLYTAKAEALLDLRDDEAMLNEMEAVGELPMALEYESLTDVQTQIVTAIQAELAHFRNTAQPINLGAVLQEQLARYPQSRHFDVARIIVDQAVKLGMASQDHQAVYPVWQPIDDFSAAVQAHLIDQYDK”, “soluble”. The result for “GSHMASMTGGQQMGRGSMVKVLTACGNGMGSSMVIKMKVENALRQLGVSDIESASCSVGEAKGLASNYDIVVASNHLIHELDGRTNGKLIGLDNLMDDNEIKTKLEEALK” reads “soluble”; that for “MRDAEKTVGNMIDKLKTAFIGSIDSEGFPNMKAMLQPRKREGIKTIYLTTNTSSMRVAQYRENNHACIYFCDTRFFRGVMLRGTMEVLTDPASKEMIWQEGDTMYYPEGVTDPDYCVLKFTAISGRFYSNFKSESFAVE”, “not soluble”. On to “MANIDYMMDPGWKYLRQAQDEALKEQAARRFDNKTHAWVPDAAEGFVTAAVAVQEGDNLTFTMPDGTPKKLTRAEVQEINPAKFEKTEDMSNLTFLNEASVLHNLRQRYYSMMIYTYSGLFCVFINPYKMLPIYTDSVASMYVNKRRAEMPPHLFAVSDEAFRNMMSDKENQSMLITGESGAGKTENTKKVIAYFAMIGSGNKDQKSESSLENQVVQANPAIEAFGNGATTRNYNSSRYGKFIRIHFDRKGKLVGGDIEHYLLEKSRVIKQAPGERSYHIFYQIMTQKALRERYGLSDNIRDYKFVSQAEITVPGMNDTEEWQITDGAFNVMGFSEREKDDLYKLCSAIMHIGNSTFKQKPRDEQAEVDDMTSPTAACKLFGINTDQFLNALTRPRIKVGMEWVNKGQNVQQVDWAVGALSKAIYARMFNWLIKRVNKTLQANSDEMVYYIGVLDIAGFEIFDRNSFEQLWINFVNEKLQQFFNHHMFVLEQEEYQREGIEWTFIDFGLDLQSCIELIEKPLGIVSMLDEECIVPKASDMTYVDKLLTQHLGKHPNFQKAKPPKGKQAEAHFSIMHYAGTVRYNAEQWLDKNKDPLNDSAVAILKTSDKEGVLYQLWEEYQTDVDREESEKRGKAQAKKKGKSASFLTVSTMYRESLTSLMTMLHTTHPHFIRCIIPNEKKTSGLIDAPLVLNQLTCNGVLEGIRICRKGFPNRMMFADFRFRYAILAADEASDKDAAKASKAMLRKLSKNNQLNVDTFKVGTTKVFFRAGMLARLEELRDEALSAVILKFQCSLRHYLAQLEYKRRLDREDAYPIIQENIRAWIKLRSWPWYRLFSRLKPMLKGMKSNAEIEALEKKCKELEENHKREEEARKKYADELRAKIDQYEETKAAHERDRMLLDKRNKEIEELNRNLKAESESNYENAKKASELERLREKEKKEWDEKERRMQMEAENEANQHKTQTEKLKDQISTLQTDFEKVSAQRKAQEQMNAELVDEVASFKQKAERAEEQKKKLVEDLDSLDDKLAAEKRANNEHVKHNKKLEGQLKATQTQLTLALKEKHEFDVDCKRRESEIGELKLKAQGDANLISKLQAMLRKCISRIEELEEDLLEERKLRMKAERQFNELRSEYEVLQEQMAEASGQLTAEAHINKVRAEEVSNLRRDLQKRNLNHEAYISDLCNMQYATVNNLRNLSQQSATLESEALRILDHRRALSKQPLPRVYVEDPDSDSD”, for which the “soluble on expression in E. coli” value is listed as “not soluble”. For “MKLVLAVIQDADAAALMRALSEQHFEATKLASTGGFLREGNTTLMIGVDDQRLDTLRTLIGQTCRSRTRLVPARGLVSESEGGVAQEPVEVPVGGAVIFVLGVEDFVKV”, the “soluble on expression in E. coli” value is “not soluble”.

As for “MSPNHVDHLVLPVAQIDIATARLANLGFTVAPLAVHPFGTANACVFLADGTYLEPLAVNDPAKYGESANRGDVFTGRDRAFRESCGPEGFSALVARSGDAFVDHERFVAAGLSAGDLFEFSRPVQMPDGSRSEAAFRLAFAASGAAADFFLFGCQRLKALPGDRTELERHANAVTGLFEIVLFSGGDAKAARLIETVFGCKSAMSPGGDMVFATGNARIRLTEKPAVADLDLNTSNRGDGGLRGAGIVFSVTDLAVTAAVLAANGVSSMEAGGRLVVPAAPGQGVAFAFEEI”, the “soluble on expression in E. coli” value was “not soluble”.

In the case of “MSLDRELKNLHLNISQLAALSGAHRQTVAARVKNISPAGGHESNLKLYRLTDILAELMKAPLPVDNEEMDPHARKAWYQSERDRLKFEQETGQLVPVSDVRRSFSVVVKAIVQVLETWPDRLERDRGWTASQLNEVQIVVDEIRDTLEKAVIDCCDEADEGHHHHHH”, the “soluble on expression in E. coli” value is “soluble”. In the case of “MTYELAIGDRAYSSWSLRGWLLFDAFGLPVRVRRARLYTDELPALLADFAPARTVPAMKTSAGTVVAESLAIAEELASRHPEAGIWPADPEHRAVARALAAEMHAGFGALRSHCPMNLRVSYEGCDPPEAVQADLARLERIWAEARARCSTEGPWLCGSYSAADVFFAPVAARIAGYGLAVSPEAQAYVAAHLAHPSFRRWRAMGAVDGADQEFYARPYPPRPWPGPAPLPARAVADGVAENDACPYSGAPVTDLLEIEGRIFGFCNPFCRDKTVADPEAWPAFTALLRHREGS”, the “soluble on expression in E. coli” value is given as “not soluble”. Take “MTPAIDAHVRLDTHPTHPSAVQAHLTGTQARVASMALEAAGWSAAATGVLVLARIDHEEPYWAADAAQHLTAAGITVEITPRLQEAIDEEWTWPNYPMTWCTRSEIREVSNQAQKIHDDIRNGHLLIHAHAHDGHTTVAVGTYLHPGGKSVYLHGEDHLRQVADTFDSPAEALVAFEKVHAAEMRPGPAPLTDTERAAIAARSVFDATTAKPEPPRREPEAVPVYLADAGDHDALLDSFLDTHGEFEKWRTWSDETTHAIHESQTLRIERVHETQARETAWTVAAYETPVSDRMWHLTATDATPAPVLLNLLNHLADGDGWDTVIGVPVGEKTVTTATQPLTEAGWKHTLTGHGIRWTSPDGQASVRFDPLTAQAPQNPATWTIWAGPGPDRPTWAITASSHTPSSLLADLSESLAHETGTRQPRPGREHRTRLAASAPAIPAVTSDRPASRSRLEHHHHHH”: the “soluble on expression in E. coli” value is “soluble”. The same measure for “DAPLNSVEGFIRQVLGWREFLRHVYRREMPSLAEANQLGANEALPDFYWNGDTDMACLSDVVDGVRERGYSHHIERLMILANFGLIYGVEPAQLNRWFHAGYVDAFHWVTTPNVVEMGLYGAGVFATKPYASSANYVDKMSDYCSGCPYYKTKTTGDGACPFNALYWDFLDRNEETLRSNHRMGLMYSHVDNKSDEELGEIRERAAEIREMATKGE”: “not soluble”.

For “MGSDKIHHHHHHMQFERISTEQKKLSLIQTFLHQNALKLDEQIEYFVVGYNDNEQIVVCGGLAGNIIKCVAIDESLRGSGVALQLITELVDLAYTLKRPHLFIYTKPEYATLFKSCGFYIISDANPYVVLLENSATRLQKQCSLWEKMRVDGNRIGSIVMNANPFTLGHRYLIEQALQQCDHLHLFIVGEDASQFSYTERFEMIQQGIFDLSNITLHSGSDYIISRATFPNYFLKDQLITDESYFEIDLKLFRLHIAQALGITHRFVGTELNCPVTAEYNRQMHYWLMDAEMNAPKINVIEIPRKTASNHIISASTVRKHLAEKNWAQLAEFVPMTTLNYLQKCGRF”, the “soluble on expression in E. coli” value was “not soluble”. The same measure for “TAGFSLNVLTINTHKGFTAFNRRFILPELRDAVRSVSADIVCLQEVMGAHEVHPLHIENWPDTTHYEFLADTMWSDYAYGRNAVYPEGHHGNAVLSRFPIEYYENRDISVGNGEKRGLLYCRIVPPRSGITIHVICVHLGLRADQRQAQLTMLAEWVNTLPAGEPVVVAGDFNDWRQQANQPLKAQAGLEEIFTRARGRPARTFPVSFPLLRLDRIYVKNAHASRPKALALKQWRHLSDHAPLSVEIHL”: “not soluble”.
